Consider two molecules from paper PMC9614494, “Glutamate 1-semialdehyde aminotransferase is connected to GluTR by GluTR-binding protein and contributes to the rate-limiting step of 5-aminolevulinic acid synthesis” (The Plant Cell, 2022).

The labels stand for the following.
B2: recombinant 6xHis-GSAAT (enzyme)
chain: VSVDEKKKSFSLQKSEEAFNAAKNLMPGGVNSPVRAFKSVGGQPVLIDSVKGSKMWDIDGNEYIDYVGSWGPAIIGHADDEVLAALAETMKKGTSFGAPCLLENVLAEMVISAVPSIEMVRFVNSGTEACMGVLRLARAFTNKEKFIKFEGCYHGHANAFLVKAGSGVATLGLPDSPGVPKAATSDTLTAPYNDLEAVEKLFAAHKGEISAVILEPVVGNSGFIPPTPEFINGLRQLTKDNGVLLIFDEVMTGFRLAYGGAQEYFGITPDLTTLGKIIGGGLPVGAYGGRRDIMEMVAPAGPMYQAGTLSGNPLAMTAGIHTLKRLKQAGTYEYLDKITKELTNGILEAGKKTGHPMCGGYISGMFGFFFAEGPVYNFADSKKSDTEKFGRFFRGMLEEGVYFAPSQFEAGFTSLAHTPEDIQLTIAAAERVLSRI

Conditions in all cases: both partners purified
The target of the test “recombinant 6xHis-GSAAT” is B2. Briefly: MST; 6xHis-GBP labelled with RED-NHS 2nd generation as target, with or without GluTR, ligand in 1:1 dilutions from 5 nM to 110 µM; Monolith NT.115, 30°C, 40% LED power, PBS.
Another test deals with T1, recombinant 6xHis-GluTR (Arabidopsis thaliana, UniProt P42804 62-543).
T1 construct: Glutamyl-tRNA reductase (GluTR), Arabidopsis thaliana; Named only in the results on MST; the methods on purification list only GST-GluTR
Description: MST; 6xHis-GSAAT labelled with RED-NHS 2nd generation as target, 6xHis-GluTR titrated; Monolith NT.115, 30°C, PBS.

For test [1], the target named is T2, labelled 6xHis-GBP incubated with GluTR (GBP/GluTR) (Arabidopsis thaliana, UniProt Q9LU39 43-317; P42804 62-543, RED-NHS 2nd generation dye).
T2 construct: as m7; Glutamyl-tRNA reductase (GluTR), Arabidopsis thaliana; The sentence on this titration says only GluTR; 6xHis-GluTR is named for the titration before it; source: recombinant proteins mixed before the titration (6xHis-GBP: E. coli Rosetta 2, purified)
Description: MST; 6xHis-GBP labelled with RED-NHS 2nd generation as target, with or without GluTR, ligand in 1:1 dilutions from 5 nM to 110 µM; Monolith NT.115, 30°C, 40% LED power, PBS.

B1: recombinant 6xHis-GBP (natural protein, Arabidopsis thaliana, UniProt Q9LU39 43-317, looked up)
chain: SVSTTLDTPATASTHKPFPAEVSRSIMELSSVGTLSTLTHDGWPLGVGVRFAVDKDGTPVLCLNRSVSPDKRSALHVQLEQCGLRTPQCTIQGSIGRPGDDTVLKRLSATWREKFGEEVKEDSLYVVAVDRVLQMEDFMEDGIWVASSDYKNASPDPLRDIAEDIVNQINANNMEDIFRFCNVYVDLDFVVSETKMIWMDRLGFDLRVWSPRGVYDVRIPFPMEVTDEKGAKSSFNGMSQLAWEVEKSYCPADFNKVKLLKQVVGSSHSHKGGGQ
notes: Labelled with the dye RED-NHS 2nd generation where it was the MST target; unlabelled in the in vitro pull-down; also called 6× His-GBP; source: E. coli Rosetta 2, purified (Ni-NTA)
Regarding B1, the Kd (commonly the concentration at which binding is half-saturated) with recombinant 6xHis-GSAAT stood at 178 nM. In the case of B2, the Kd with recombinant 6xHis-GluTR is 3000 nM; in test [1], 940 nM.
